Data: patent publication US10919953 (dated 2021)
Where a chain is given by its changes, count along the chain named. Read-outs that look alike come from different tables or passages of the source.

Key:
Experiment in all cases: SPR
[1] = molecular target: T1, FcgRIIIaV (human, UniProt P08637)
[2] = molecular target: T2, FcgRIIb (human, UniProt P31994)
T2 chain: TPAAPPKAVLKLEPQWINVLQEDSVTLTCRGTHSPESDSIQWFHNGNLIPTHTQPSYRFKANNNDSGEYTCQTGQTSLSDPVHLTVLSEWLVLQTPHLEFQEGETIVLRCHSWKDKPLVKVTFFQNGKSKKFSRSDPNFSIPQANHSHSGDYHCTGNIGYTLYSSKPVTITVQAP

[3] = molecular target: T3, FcgRIIaR (human, UniProt P12318)
T3 chain: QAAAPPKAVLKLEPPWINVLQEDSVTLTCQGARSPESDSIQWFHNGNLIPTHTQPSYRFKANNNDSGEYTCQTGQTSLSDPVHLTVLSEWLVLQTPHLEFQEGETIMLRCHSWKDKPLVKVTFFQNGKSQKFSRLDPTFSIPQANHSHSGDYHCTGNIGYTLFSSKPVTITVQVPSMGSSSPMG

[4] = molecular target: T2, FcgRIIb
[5] = molecular target: T4, FcgRIa (human, UniProt P12314)
T4 chain: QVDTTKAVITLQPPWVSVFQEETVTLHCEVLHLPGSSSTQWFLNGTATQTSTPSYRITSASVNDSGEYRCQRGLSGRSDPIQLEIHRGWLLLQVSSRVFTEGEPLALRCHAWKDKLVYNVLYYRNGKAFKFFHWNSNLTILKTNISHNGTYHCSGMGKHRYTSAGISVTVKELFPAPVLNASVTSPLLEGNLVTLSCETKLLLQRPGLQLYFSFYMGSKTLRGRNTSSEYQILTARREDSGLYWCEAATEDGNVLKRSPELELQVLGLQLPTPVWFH

[6] = molecular target: T4, FcgRIa
[7] = molecular target: T1, FcgRIIIaV; remark: listed apart in the source
[8] = molecular target: T5, FcgRIIaH (human, UniProt P12318)
T5 chain: T3 chain with R134H

T1 sequence (P08637 17-208 F176V): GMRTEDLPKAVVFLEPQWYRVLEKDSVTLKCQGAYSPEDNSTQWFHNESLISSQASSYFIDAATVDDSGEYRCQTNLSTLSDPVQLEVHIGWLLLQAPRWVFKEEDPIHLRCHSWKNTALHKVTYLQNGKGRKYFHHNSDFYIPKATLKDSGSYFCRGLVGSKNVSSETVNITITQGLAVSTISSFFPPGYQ

B1: IL6R-BP253/IL6R-L (antibody)
chain 1: QVQLQESGPGLVKPSETLSLTCAVSGHSISHDHAWSWVRQPPGEGLEWIGFISYSGITNYNPSLQGRVTISRDNSKNTLYLQMNSLRAEDTAVYYCARSLARTTAMDYWGEGTLVTVSSASTKGPSVFPLAPSSKSTSGGTAALGCLVKDYFPEPVTVSWNSGALTSGVHTFPAVLQSSGLYSLSSVVTVPSSSLGTQTYICNVNHKPSNTKVDKKVEPKSCDKTHTCPPCPAPELLGGPSVFLFPPKPKDTLMISRTPEVTCVVVDVEHEDPEVKFNWYVDGVEVHNAKTKPREEQYNSTYRVVSVLTVLHQDWLNGKEYKCKVSNKAFPAPIEKTISKAKGQPREPQVYTLPPSRDELTKNQVSLTCLVKGFYPSDIAVEWESNGQPENNYKTTPPVLDSDGSFFLYSKLTVDKSRWQQGNVFSCSVMHEALHNHYTQESLSLSP
chain 2: not shown
Kd [1]: 3600 nM | Kd [2]: 11 nM | Kd [3]: 2.3 nM | Kd [4]: 8.9 nM | Kd [5]: 0.067 nM | Kd [6]: 0.05 nM | Kd [7]: 400 nM | Kd [8]: 860 nM
